Experimental data from IntAct's records for PubMed 19208808.

B1: ATP-dependent RNA helicase DDX19B (Homo sapiens), Q9UMR2-1 (parent)
chain: MATDSWALAVDEQEAAAESLSNLHLKEEKIKPDTNGAVVKTNANAEKTDEEEKEDRAAQSLLNKLIRSNLVDNTNQVEVLQRDPNSPLYSVKSFEELRLKPQLLQGVYAMGFNRPSKIQENALPLMLAEPPQNLIAQSQSGTGKTAAFVLAMLSQVEPANKYPQCLCLSPTYELALQTGKVIEQMGKFYPELKLAYAVRGNKLERGQKISEQIVIGTPGTVLDWCSKLKFIDPKKIKVFVLDEADVMIATQGHQDQSIRIQRMLPRNCQMLLFSATFEDSVWKFAQKVVPDPNVIKLKREEETLDTIKQYYVLCSSRDEKFQALCNLYGAITIAQAMIFCHTRKTASWLAAELSKEGHQVALLSGEMMVEQRAAVIERFREGKEKVLVTTNVCARGIDVEQVSVVINFDLPVDKDGNPDNETYLHRIGRTGRFGKRGLAVNMVDSKHSMNILNRIQEHFNKKIERLDTDDLDEIEKIAN

Variants of: B1
Settings: with NUP214, P35658-1
Chain of NUP214, P35658-1 (P35658 whole entry): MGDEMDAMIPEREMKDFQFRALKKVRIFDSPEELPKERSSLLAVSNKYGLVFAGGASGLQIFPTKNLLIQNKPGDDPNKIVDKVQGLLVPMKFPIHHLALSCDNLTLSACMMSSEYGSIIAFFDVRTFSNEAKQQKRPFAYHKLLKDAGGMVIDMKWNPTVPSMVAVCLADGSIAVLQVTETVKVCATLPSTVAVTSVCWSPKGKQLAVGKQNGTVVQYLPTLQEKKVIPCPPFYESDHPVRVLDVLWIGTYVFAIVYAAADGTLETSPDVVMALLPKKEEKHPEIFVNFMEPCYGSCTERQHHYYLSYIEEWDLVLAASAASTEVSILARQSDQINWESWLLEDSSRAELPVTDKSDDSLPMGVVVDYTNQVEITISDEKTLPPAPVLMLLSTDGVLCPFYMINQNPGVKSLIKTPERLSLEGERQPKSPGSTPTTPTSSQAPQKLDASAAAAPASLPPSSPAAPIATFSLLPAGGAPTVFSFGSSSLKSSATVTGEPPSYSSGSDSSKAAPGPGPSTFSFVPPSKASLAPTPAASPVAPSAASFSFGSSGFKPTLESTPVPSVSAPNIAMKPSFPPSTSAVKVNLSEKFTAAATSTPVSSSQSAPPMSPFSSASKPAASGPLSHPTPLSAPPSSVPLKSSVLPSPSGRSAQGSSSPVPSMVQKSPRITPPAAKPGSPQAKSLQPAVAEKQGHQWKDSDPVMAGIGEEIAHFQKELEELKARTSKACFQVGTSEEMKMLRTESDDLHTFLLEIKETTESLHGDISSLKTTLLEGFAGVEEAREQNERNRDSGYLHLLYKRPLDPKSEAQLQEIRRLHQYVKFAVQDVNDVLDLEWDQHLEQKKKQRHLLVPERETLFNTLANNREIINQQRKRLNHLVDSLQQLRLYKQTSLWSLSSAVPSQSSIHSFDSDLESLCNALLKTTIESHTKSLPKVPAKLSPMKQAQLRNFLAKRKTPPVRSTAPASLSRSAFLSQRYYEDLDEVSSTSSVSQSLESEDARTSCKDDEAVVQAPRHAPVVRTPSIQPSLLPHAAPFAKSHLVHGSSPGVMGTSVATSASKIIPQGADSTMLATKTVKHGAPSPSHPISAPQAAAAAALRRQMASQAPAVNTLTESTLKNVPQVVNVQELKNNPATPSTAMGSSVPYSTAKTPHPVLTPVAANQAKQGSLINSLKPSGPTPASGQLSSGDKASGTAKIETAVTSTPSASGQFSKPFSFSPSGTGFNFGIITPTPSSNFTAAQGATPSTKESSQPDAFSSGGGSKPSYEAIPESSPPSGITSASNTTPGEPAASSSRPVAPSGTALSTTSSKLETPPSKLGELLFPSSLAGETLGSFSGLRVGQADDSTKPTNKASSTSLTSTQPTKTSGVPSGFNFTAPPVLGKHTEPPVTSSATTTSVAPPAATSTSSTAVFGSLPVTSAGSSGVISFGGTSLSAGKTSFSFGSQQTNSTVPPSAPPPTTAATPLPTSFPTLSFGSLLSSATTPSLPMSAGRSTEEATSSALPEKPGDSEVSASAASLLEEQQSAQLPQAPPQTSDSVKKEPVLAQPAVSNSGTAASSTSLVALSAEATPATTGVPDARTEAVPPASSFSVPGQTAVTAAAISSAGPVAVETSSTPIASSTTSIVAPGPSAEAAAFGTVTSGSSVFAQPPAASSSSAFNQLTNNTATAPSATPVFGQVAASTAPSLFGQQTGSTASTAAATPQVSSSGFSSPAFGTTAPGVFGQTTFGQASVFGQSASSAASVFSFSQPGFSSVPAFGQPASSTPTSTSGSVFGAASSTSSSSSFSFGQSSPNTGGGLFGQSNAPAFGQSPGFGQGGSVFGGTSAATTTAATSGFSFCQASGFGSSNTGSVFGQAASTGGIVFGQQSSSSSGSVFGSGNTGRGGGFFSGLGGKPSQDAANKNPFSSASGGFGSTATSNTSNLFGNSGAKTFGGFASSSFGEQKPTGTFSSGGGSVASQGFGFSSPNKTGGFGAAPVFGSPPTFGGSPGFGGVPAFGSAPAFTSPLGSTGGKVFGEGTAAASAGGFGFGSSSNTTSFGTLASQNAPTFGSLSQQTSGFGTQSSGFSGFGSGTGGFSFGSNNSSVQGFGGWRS
In the case of R259A, the “effect of a mutation on the interaction” value is reported as “disrupting interaction strength”.
With R259Q the “effect of a mutation on the interaction” value was “decreasing interaction”.
For R259E, the “effect of a mutation on the interaction” value was “disrupting interaction strength”.
